Laboratory results published in US20220220508, “ENGINEERED CASX SYSTEMS” (Scribe Therapeutics Inc., published 2022).

T1: CasX 488
T1 chain: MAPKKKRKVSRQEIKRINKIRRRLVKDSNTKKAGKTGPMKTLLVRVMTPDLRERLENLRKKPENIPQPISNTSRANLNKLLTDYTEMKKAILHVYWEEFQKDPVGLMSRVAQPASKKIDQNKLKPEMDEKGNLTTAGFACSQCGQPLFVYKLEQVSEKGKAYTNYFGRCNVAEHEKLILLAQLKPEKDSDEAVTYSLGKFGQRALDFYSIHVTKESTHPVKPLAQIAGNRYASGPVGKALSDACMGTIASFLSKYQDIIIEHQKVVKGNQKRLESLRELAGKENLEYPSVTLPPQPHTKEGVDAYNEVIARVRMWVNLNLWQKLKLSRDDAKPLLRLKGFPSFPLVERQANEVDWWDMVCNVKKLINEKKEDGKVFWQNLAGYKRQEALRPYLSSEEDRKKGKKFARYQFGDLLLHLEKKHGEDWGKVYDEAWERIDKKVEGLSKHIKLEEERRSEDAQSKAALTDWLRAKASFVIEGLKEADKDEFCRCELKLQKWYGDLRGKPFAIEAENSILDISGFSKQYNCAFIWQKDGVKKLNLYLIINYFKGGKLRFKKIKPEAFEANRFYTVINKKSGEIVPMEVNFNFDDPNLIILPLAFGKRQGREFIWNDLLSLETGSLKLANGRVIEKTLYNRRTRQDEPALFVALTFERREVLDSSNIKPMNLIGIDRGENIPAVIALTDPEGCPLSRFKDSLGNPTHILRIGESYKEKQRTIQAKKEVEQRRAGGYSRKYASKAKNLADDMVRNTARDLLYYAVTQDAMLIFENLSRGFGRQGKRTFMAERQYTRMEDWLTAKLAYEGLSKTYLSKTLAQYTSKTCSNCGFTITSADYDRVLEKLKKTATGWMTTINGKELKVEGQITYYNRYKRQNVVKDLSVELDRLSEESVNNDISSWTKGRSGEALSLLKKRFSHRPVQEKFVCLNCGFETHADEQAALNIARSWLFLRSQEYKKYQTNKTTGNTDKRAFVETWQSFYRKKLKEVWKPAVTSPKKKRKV

T2: CasX 491
T2 chain: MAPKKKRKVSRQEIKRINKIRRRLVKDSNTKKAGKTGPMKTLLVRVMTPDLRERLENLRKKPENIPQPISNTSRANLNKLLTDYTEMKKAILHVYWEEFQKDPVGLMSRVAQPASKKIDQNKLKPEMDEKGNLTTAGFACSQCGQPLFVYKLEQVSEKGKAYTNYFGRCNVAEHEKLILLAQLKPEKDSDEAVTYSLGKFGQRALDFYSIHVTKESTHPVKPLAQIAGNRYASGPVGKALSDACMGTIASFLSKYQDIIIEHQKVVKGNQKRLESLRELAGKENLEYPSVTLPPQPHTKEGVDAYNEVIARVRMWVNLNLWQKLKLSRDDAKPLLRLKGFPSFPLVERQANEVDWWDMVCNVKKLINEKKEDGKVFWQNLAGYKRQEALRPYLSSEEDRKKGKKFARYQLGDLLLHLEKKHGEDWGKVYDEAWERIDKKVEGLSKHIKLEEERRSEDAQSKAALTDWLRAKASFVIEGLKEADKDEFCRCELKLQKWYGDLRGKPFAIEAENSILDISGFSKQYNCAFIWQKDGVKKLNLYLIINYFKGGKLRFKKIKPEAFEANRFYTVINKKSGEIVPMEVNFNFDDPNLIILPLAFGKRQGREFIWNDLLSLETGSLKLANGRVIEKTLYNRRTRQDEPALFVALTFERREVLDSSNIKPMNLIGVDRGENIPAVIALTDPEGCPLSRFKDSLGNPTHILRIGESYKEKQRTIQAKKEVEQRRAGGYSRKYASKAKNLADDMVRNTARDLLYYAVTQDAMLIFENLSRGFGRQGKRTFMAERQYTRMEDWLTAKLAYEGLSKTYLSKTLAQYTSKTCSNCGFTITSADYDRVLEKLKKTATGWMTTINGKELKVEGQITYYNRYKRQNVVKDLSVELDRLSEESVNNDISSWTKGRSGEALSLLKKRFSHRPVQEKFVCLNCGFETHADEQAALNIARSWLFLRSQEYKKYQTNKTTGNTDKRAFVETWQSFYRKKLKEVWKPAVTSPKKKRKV

T3: CasX 438 (in cells) (Planctomycetes)
T3 chain: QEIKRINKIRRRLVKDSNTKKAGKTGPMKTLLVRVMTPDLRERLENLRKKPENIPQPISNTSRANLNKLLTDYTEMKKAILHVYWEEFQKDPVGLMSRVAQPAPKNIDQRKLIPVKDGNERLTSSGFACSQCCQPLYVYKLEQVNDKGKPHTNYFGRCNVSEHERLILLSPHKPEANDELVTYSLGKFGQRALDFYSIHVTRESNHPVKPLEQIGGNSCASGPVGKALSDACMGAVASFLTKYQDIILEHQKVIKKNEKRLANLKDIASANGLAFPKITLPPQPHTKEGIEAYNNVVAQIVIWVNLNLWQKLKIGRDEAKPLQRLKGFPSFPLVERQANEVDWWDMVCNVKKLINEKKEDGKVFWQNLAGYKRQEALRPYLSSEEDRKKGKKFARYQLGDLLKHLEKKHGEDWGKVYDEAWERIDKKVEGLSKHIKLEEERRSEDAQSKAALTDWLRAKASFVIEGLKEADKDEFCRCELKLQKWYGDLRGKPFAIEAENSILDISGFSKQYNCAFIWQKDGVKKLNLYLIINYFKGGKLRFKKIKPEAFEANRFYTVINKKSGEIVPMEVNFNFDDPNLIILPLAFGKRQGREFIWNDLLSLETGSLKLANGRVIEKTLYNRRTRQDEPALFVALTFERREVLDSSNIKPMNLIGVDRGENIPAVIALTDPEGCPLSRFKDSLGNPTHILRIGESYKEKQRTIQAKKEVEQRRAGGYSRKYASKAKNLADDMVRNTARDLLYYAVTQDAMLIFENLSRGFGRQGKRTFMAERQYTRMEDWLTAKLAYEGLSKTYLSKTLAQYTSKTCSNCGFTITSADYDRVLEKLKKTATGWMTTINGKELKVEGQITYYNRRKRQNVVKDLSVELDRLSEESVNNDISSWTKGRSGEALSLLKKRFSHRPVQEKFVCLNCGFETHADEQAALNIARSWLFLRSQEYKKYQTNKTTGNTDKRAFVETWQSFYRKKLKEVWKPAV


Tests used:
[1] = target: CasX 119 (L379R+A708K+[P793]) (Planctomycetes); experiment: cleavage_in_vitro; kcleave; TTC PAM; details: tags: N-terminal SV40 NLS, C-terminal NLS, TEV site and twin Strep tag; label: fluorescent
Experimental: (§1) In vitro cleavage assays were performed essentially as described in Example 19, using CasX 2 (SED ID NO:2), CasX 119, and CasX 438 complexed with single guide 174 with spacer 7.37 targeted against B2M. Fluorescently labeled dsDNA targets that would be complementary with a 7.37 spacer and either a ITC, CTC, CTC, or ATC PAM were used (The DNA sequences used to generate each dsDNA substrate are shown in Table 29. The PAM sequences for each are bolded. TS—target strand. NTS—Non-target strand). Target DNA was incubated with a 20-fold excess of the indicated RNP and the amount of cleaved target was determined at the indicated. time points. The monophasic fit of the combined replicates is shown. During the assay, samples were taken at 0.25, 0.5, 1, 2, 5, 10, 30, and 60 minutes. Gels were imaged with an Amersham Typhoon and quantified using the IQTL 8,2 software. Apparent first-order rate constants for non-target strand cleavage (kcleave) were determined for each Casx:sgRNA complex on each target. Rate constants for targets with non-TTC PAM were compared to the TIC PAM target to determine whether the relative preference for each PAM was altered for a given CasX variant. The results are shown in FIG. 73 (the monophasic fit of the combined replicates is shown) and Table 30. […]

CasX 438 = CasX 438 (Planctomycetes); experiment: cleavage_in_vitro; kcleave; TTC PAM; details: tags: N-terminal SV40 NLS, C-terminal NLS, TEV site and twin Strep tag; label: fluorescent
Experimental: as §1

CasX 488 = target: T1, CasX 488; experiment: cell_activity; lentiviral iGFP editing; TTC PAM
CasX 491 = target: T2, CasX 491; experiment: cell_activity; lentiviral iGFP editing; TTC PAM
CasX 438 (in cells) = target: T3, CasX 438 (in cells); experiment: cell_activity; lentiviral iGFP editing; TTC PAM

CasX 119 (L379R+A708K+[P793]) (Planctomycetes), sequence (chain, as listed by the source L379R A708K L379R A708K): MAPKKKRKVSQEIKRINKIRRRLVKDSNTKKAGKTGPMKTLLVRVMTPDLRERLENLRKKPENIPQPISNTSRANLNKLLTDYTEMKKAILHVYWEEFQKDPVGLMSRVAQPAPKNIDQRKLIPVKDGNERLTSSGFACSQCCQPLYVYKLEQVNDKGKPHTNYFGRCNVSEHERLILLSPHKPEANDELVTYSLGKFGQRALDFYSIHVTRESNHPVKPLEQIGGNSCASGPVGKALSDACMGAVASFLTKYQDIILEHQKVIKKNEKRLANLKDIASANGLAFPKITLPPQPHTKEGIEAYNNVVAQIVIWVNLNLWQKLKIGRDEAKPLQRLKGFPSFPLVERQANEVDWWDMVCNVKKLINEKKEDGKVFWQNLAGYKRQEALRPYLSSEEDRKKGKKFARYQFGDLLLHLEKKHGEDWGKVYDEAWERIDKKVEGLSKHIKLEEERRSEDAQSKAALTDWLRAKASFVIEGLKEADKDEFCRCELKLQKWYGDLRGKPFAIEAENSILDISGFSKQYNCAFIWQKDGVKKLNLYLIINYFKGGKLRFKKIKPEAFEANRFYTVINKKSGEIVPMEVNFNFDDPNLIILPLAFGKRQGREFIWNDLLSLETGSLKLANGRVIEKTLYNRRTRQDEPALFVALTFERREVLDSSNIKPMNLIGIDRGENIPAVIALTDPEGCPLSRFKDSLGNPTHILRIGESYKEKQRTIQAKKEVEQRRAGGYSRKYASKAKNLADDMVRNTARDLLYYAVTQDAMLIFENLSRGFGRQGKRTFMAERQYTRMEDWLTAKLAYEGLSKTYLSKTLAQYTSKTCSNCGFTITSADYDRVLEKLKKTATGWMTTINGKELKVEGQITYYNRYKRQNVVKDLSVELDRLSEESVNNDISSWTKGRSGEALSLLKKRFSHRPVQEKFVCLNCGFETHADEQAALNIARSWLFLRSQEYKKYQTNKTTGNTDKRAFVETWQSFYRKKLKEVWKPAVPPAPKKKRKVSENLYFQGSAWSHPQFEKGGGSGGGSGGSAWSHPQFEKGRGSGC
CasX 438 (Planctomycetes), sequence (chain, as listed by the source): as the sequence (chain, as listed by the source L379R A708K L379R A708K) above, with F408L, L413K, I667V, Y865R counted along it

Row | Binder | activity [1] [min⁻¹] | activity (CasX 438) [min⁻¹] | binding signal (CasX 488) [fold vs CasX 119] | binding signal (CasX 491) [fold vs CasX 119] | binding signal (CasX 438 (in cells)) [fold vs CasX 119]
1 | sgRNA 174.7.37 ; 7.37 TTC PAM target (ssRNA ; dsDNA) RNA: ACUGGCGCUUUUAUCUGAUUACUUUGAGAGCCAUCACCAGCGACUAUGUCGUAGUGGGUAAAGCUCCCUCUUCGGAGGGAGCAUCAAAGGGCCGAGAUGUCUCGCUCCG DNA 1: TGAAGCTGACAGCATTCGGGCCGAGATGTCTCGCTCCGTGGCCTTAGCTGTGCTCGCGCT DNA 2: AGCGCGAGCACAGCTAAGGCCACGGAGCGAGACATCTCGGCCCGAATGCTGTCAGCTTCA | 8.33 | 4.94 |  |  | 
2 | scaffold 174 + spacer 4.76 ; EGFP E6/4.76 target (ssRNA ; dsDNA) RNA: ACUGGCGCUUUUAUCUGAUUACUUUGAGAGCCAUCACCAGCGACUAUGUCGUAGUGGGUAAAGCUCCCUCUUCGGAGGGAGCAUCAAAGUGUGGUCGGGGUAGCGGCUG DNA 1: TGTGGTCGGGGTAGCGGCTG DNA 2: CAGCCGCTACCCCGACCACA |  |  | 1.41 | 1.55 | 1.22
3 | scaffold 174 + spacer 4.77 ; EGFP E7/4.77 target (ssRNA ; dsDNA) RNA: ACUGGCGCUUUUAUCUGAUUACUUUGAGAGCCAUCACCAGCGACUAUGUCGUAGUGGGUAAAGCUCCCUCUUCGGAGGGAGCAUCAAAGUCAAGUCCGCCAUGCCCGAA DNA 1: TCAAGTCCGCCATGCCCGAA DNA 2: TTCGGGCATGGCGGACTTGA |  |  | 2.43 | 3.03 | 
